Laboratory results reported in paper PMC9491731 (PLoS Genetics, 2022).

Molecular target: T1, WT CcdB (Controller of Cell Death protein B) (Escherichia coli (F-plasmid), UniProt P62554)
T1 construct: also called CcdB-WT
Assay: thermal shift assay (Sypro orange)
Settings: both partners purified

B1: CcdA peptide (45–72) (peptide)
peptide: KAENQEGMAEVARFIEMNGSFADENRDW
binding result: binds
